From publication PMC12102759 (2025) come the findings set out here.

Sequences and labels used below:
B1: AMOTL2 peptide 66-81 (Angiomotin-like protein 2), 16-mer library wild type / TNKS ANK (TNKS 12 ANK repeats, residues 174-649) (parent complex)
chain 1: LQQATRQEPQGQEHQG
chain 2: TGVPAVSGALRELLEACRNGDVSRVKRLVDAANVNAKDMAGRKSSPLHFAAGFGRKDVVEHLLQMGANVHARDDGGLIPLHNACSFGHAEVVSLLLCQGADPNARDNWNYTPLHEAAIKGKIDVCIVLLQHGADPNIRNTDGKSALDLADPSAKAVLTGEYKKDELLEAARSGNEEKLMALLTPLNVNCHASDGRKSTPLHLAAGYNRVRIVQLLLQHGADVHAKDKGGLVPLHNACSYGHYEVTELLLKHGACVNAMDLWQFTPLHEAASKNRVEVCSLLLSHGADPTLVNCHGKSAVDMAPTPELRERLTYEFKGHSLLQAAREADLAKVKKTLALEIINFKQPQSHETALHCAVASLHPKRKQVTELLLRKGANVNEKNKDFMTPLHVAAERAHNDVMEVLHKHGAKMNALDTLGQTALHRAALAGHLQTCRLLLSYGSDPSIISLQGFTAAQMGNEAVQQILSESTPIRTSD
B2: TPTE2 peptide 92-107 (Phosphatidylinositol 3,4,5-trisphosphate 3-phosphatase TPTE2), 16-mer library wild type / TLN1 PTB (TLN1 Phosphotyrosine-binding (PTB) domain, residues 309-401) (parent complex)
chain 1: LADLIFTDSKLYIPLE
chain 2: GVSFFLVKEKMKGKNKLVPRLLGITKECVMRVDEKTKEVIQEWNLTNIKRWAASPKSFTLDFGDYQDGYYSVQTTEGEQIAQLIAGYIDIILK

Variants of B1 are the subject of the first assay. Put plainly: proteomic peptide phage display deep mutational scan (ProP-PD DMS): M13 P8 16-mer library selected against immobilised GST-tagged bait for four days (rounds), NGS of the eluted pools per day and pseudo-replica; bait immobilised on MaxiSorp plates (10 µg), library pre-cleared on GST, 2 h binding at 4 °C, five washes; one round per day, days 1-4; value from days 2 and 3.
Consider chain 1 LQQATRQEPQGAEHQG [chain 1 Q12A], for which the screen value is 0.000321 average fractional NGS count over selection days 2 and 3 (reads of this peptide / all reads for the bait, averaged over ….

On to chain 1 LQNATRQEPQGQEHQG [chain 1 Q3N], for which the screen value was 0.000319 average fractional NGS count over selection days 2 and 3 (reads of this peptide / all reads for the bait, averaged over …. Same read-out and setting: under chain 1 LQDATRQEPQGQEHQG [chain 1 Q3D] stands 0.000274 average fractional NGS count over selection days 2 and 3 (reads of this peptide / all reads for the bait, averaged over …. Same read-out and setting: then chain 1 LQQATRWEPQGQEHQG [chain 1 Q7W], with 0.000185 average fractional NGS count over selection days 2 and 3 (reads of this peptide / all reads for the bait, averaged over …; and chain 1 LQQATRQSPQGQEHQG [chain 1 E8S], with 0.000226 average fractional NGS count over selection days 2 and 3 (reads of this peptide / all reads for the bait, averaged over …. Same read-out and setting: then chain 1 LQQATRQHPQGQEHQG [chain 1 E8H], with 0.000322 average fractional NGS count over selection days 2 and 3 (reads of this peptide / all reads for the bait, averaged over …. Take chain 1 LQQATRQGPQGQEHQG [chain 1 E8G]: the screen value is 0.000387 average fractional NGS count over selection days 2 and 3 (reads of this peptide / all reads for the bait, averaged over …. The same measure, in the same setting: then chain 1 LQQATRQEPQGQENQG [chain 1 H14N], with 0.000168 average fractional NGS count over selection days 2 and 3 (reads of this peptide / all reads for the bait, averaged over …. On the same count and under the same terms, then chain 1 LQQATRQEPQGQEQQG [chain 1 H14Q], with 0.000459 average fractional NGS count over selection days 2 and 3 (reads of this peptide / all reads for the bait, averaged over …; and chain 1 LQQATRQEPQGQEKQG [chain 1 H14K], with 0.00043 average fractional NGS count over selection days 2 and 3 (reads of this peptide / all reads for the bait, averaged over ….

In the case of chain 1 LQQATRQEPQGQHHQG [chain 1 E13H], the screen value was 0.000694 average fractional NGS count over selection days 2 and 3 (reads of this peptide / all reads for the bait, averaged over …. Still for that read-out and setting: under chain 1 LQQATRQEPQGQNHQG [chain 1 E13N] stands 0.000173 average fractional NGS count over selection days 2 and 3 (reads of this peptide / all reads for the bait, averaged over …; under chain 1 LQQATRQEPQGQEHDG [chain 1 Q15D], 0.000198 average fractional NGS count over selection days 2 and 3 (reads of this peptide / all reads for the bait, averaged over …. Still for that read-out and setting: under chain 1 LQQATRQEPQGQEHHG [chain 1 Q15H] stands 0.00187 average fractional NGS count over selection days 2 and 3 (reads of this peptide / all reads for the bait, averaged over …; under chain 1 LQQATRQEPQGQEHYG [chain 1 Q15Y], 0.00994 average fractional NGS count over selection days 2 and 3 (reads of this peptide / all reads for the bait, averaged over …; under chain 1 LQQATRQEPQGQEHFG [chain 1 Q15F], 0.000668 average fractional NGS count over selection days 2 and 3 (reads of this peptide / all reads for the bait, averaged over …. Same read-out and setting: then chain 1 LQQATRQEAQGQEHQG [chain 1 P9A], with 0.000163 average fractional NGS count over selection days 2 and 3 (reads of this peptide / all reads for the bait, averaged over …. In the case of chain 1 NQQATRQEPQGQEHQG [chain 1 L1N], the screen value is 0.000133 average fractional NGS count over selection days 2 and 3 (reads of this peptide / all reads for the bait, averaged over …. For chain 1 AQQATRQEPQGQEHQG [chain 1 L1A], the screen value was 0.00444 average fractional NGS count over selection days 2 and 3 (reads of this peptide / all reads for the bait, averaged over …. Same read-out and setting: under chain 1 SQQATRQEPQGQEHQG [chain 1 L1S] stands 0.000161 average fractional NGS count over selection days 2 and 3 (reads of this peptide / all reads for the bait, averaged over …; under chain 1 LQQLTRQEPQGQEHQG [chain 1 A4L], 0.00111 average fractional NGS count over selection days 2 and 3 (reads of this peptide / all reads for the bait, averaged over …; under chain 1 LQQPTRQEPQGQEHQG [chain 1 A4P], 0.00156 average fractional NGS count over selection days 2 and 3 (reads of this peptide / all reads for the bait, averaged over …. Still for that read-out and setting: under chain 1 LQQANRQEPQGQEHQG [chain 1 T5N] stands 0.000716 average fractional NGS count over selection days 2 and 3 (reads of this peptide / all reads for the bait, averaged over …; under chain 1 LQQATRQEPNGQEHQG [chain 1 Q10N], 0.000239 average fractional NGS count over selection days 2 and 3 (reads of this peptide / all reads for the bait, averaged over …. Same read-out and setting: then chain 1 LNQATRQEPQGQEHQG [chain 1 Q2N], with 0.000675 average fractional NGS count over selection days 2 and 3 (reads of this peptide / all reads for the bait, averaged over …; and chain 1 LEQATRQEPQGQEHQG [chain 1 Q2E], with 0.00238 average fractional NGS count over selection days 2 and 3 (reads of this peptide / all reads for the bait, averaged over …; and chain 1 LMQATRQEPQGQEHQG [chain 1 Q2M], with 0.000757 average fractional NGS count over selection days 2 and 3 (reads of this peptide / all reads for the bait, averaged over ….

Another assay covers variants of B2. The description is as above.
For chain 1 LADLIFTDSKLYVPLE [chain 1 I13V], the screen value was 0.00758 average fractional NGS count over selection days 2 and 3 (reads of this peptide / all reads for the bait, averaged over …. As for chain 1 LADLIFTDSKLYLPLE [chain 1 I13L], the screen value is 0.000788 average fractional NGS count over selection days 2 and 3 (reads of this peptide / all reads for the bait, averaged over …. Consider chain 1 LADLIFTDSKLYEPLE [chain 1 I13E], for which the screen value was 0.000182 average fractional NGS count over selection days 2 and 3 (reads of this peptide / all reads for the bait, averaged over ….

Regarding chain 1 LADLIFTDSKLYFPLE [chain 1 I13F], the screen value was 0.000135 average fractional NGS count over selection days 2 and 3 (reads of this peptide / all reads for the bait, averaged over …. On the same count and under the same terms, then chain 1 LADLIFTDSKLYTPLE [chain 1 I13T], with 0.000348 average fractional NGS count over selection days 2 and 3 (reads of this peptide / all reads for the bait, averaged over ….

In the case of chain 1 LADLIFTDSKLYRPLE [chain 1 I13R], the screen value is 0.00065 average fractional NGS count over selection days 2 and 3 (reads of this peptide / all reads for the bait, averaged over ….

On to chain 1 LADLIFTDSKLYIPNE [chain 1 L15N], for which the screen value was 0.000216 average fractional NGS count over selection days 2 and 3 (reads of this peptide / all reads for the bait, averaged over ….

On to chain 1 LADLIFTDSKLYIPKE [chain 1 L15K], for which the screen value was 0.000159 average fractional NGS count over selection days 2 and 3 (reads of this peptide / all reads for the bait, averaged over …. Same read-out and setting: then chain 1 LADLIFTDSKLYIPWE [chain 1 L15W], with 0.000732 average fractional NGS count over selection days 2 and 3 (reads of this peptide / all reads for the bait, averaged over …; and chain 1 LADLIFTDSKLYIPFE [chain 1 L15F], with 0.000576 average fractional NGS count over selection days 2 and 3 (reads of this peptide / all reads for the bait, averaged over …; and chain 1 LADLIFTDSKLYIPVE [chain 1 L15V], with 0.0032 average fractional NGS count over selection days 2 and 3 (reads of this peptide / all reads for the bait, averaged over …. On to chain 1 LADLIFTDSKLYIPQE [chain 1 L15Q], for which the screen value is 0.00188 average fractional NGS count over selection days 2 and 3 (reads of this peptide / all reads for the bait, averaged over …. Still for that read-out and setting: under chain 1 LADLIFTDSKLYIPYE [chain 1 L15Y] stands 0.00117 average fractional NGS count over selection days 2 and 3 (reads of this peptide / all reads for the bait, averaged over …; under chain 1 LADLIFTDSKLYIPHE [chain 1 L15H], 0.00102 average fractional NGS count over selection days 2 and 3 (reads of this peptide / all reads for the bait, averaged over …; under chain 1 LADVIFTDSKLYIPLE [chain 1 L4V], 0.0013 average fractional NGS count over selection days 2 and 3 (reads of this peptide / all reads for the bait, averaged over …. On the same count and under the same terms, under chain 1 LADPIFTDSKLYIPLE [chain 1 L4P] stands 0.000281 average fractional NGS count over selection days 2 and 3 (reads of this peptide / all reads for the bait, averaged over …; under chain 1 LADTIFTDSKLYIPLE [chain 1 L4T], 0.00113 average fractional NGS count over selection days 2 and 3 (reads of this peptide / all reads for the bait, averaged over …. On the same count and under the same terms, under chain 1 LADHIFTDSKLYIPLE [chain 1 L4H] stands 0.000467 average fractional NGS count over selection days 2 and 3 (reads of this peptide / all reads for the bait, averaged over …; under chain 1 LADQIFTDSKLYIPLE [chain 1 L4Q], 0.000755 average fractional NGS count over selection days 2 and 3 (reads of this peptide / all reads for the bait, averaged over …. Regarding chain 1 LADYIFTDSKLYIPLE [chain 1 L4Y], the screen value is 0.00693 average fractional NGS count over selection days 2 and 3 (reads of this peptide / all reads for the bait, averaged over …. Same read-out and setting: under chain 1 LADGIFTDSKLYIPLE [chain 1 L4G] stands 0.000192 average fractional NGS count over selection days 2 and 3 (reads of this peptide / all reads for the bait, averaged over …; under chain 1 LADIIFTDSKLYIPLE [chain 1 L4I], 0.00221 average fractional NGS count over selection days 2 and 3 (reads of this peptide / all reads for the bait, averaged over …; under chain 1 LADAIFTDSKLYIPLE [chain 1 L4A], 0.000153 average fractional NGS count over selection days 2 and 3 (reads of this peptide / all reads for the bait, averaged over …. With chain 1 LADFIFTDSKLYIPLE [chain 1 L4F], the screen value was 0.000915 average fractional NGS count over selection days 2 and 3 (reads of this peptide / all reads for the bait, averaged over …. Regarding chain 1 LADLMFTDSKLYIPLE [chain 1 I5M], the screen value was 0.000604 average fractional NGS count over selection days 2 and 3 (reads of this peptide / all reads for the bait, averaged over …. The same measure, in the same setting: then chain 1 LADLKFTDSKLYIPLE [chain 1 I5K], with 0.000454 average fractional NGS count over selection days 2 and 3 (reads of this peptide / all reads for the bait, averaged over …; and chain 1 LADLFFTDSKLYIPLE [chain 1 I5F], with 0.000696 average fractional NGS count over selection days 2 and 3 (reads of this peptide / all reads for the bait, averaged over …. chain 1 LADLDFTDSKLYIPLE [chain 1 I5D]: the screen value was 0.0016 average fractional NGS count over selection days 2 and 3 (reads of this peptide / all reads for the bait, averaged over …. Same read-out and setting: then chain 1 LADLPFTDSKLYIPLE [chain 1 I5P], with 0.000122 average fractional NGS count over selection days 2 and 3 (reads of this peptide / all reads for the bait, averaged over ….
